Laboratory results as given in the DeepSol protein solubility set.

assay: soluble on expression in E. coli; label from the status in PepcDB or PDB records

| Sequence | soluble on expression in E. coli |
| --- | --- |
| SFRMLSSSFEDDPFFADSFLAHRESMRNMMRSFSEPLGRDLLSISDGRGRTHNRRERDDGEDSLTATSFSLVPFGRFGGMHADVNPFQTMDRMMANMRSGIQELQRNFGQLSMDPNGHSFCSSSVMTYSKVGDEPPKVFQASTQTRRAPGGVKETRKAMRDSDSGLERMAVGHHIHDRGHVIRKSKNNKTGDEEVNQEFINMNESDAHAFDDEWQNEVLKYKSIGRSGNTGMRSVGHEHPGSRELKRREKIHRNSAIESGRRSNVFVDKLNVKGSPVKITKK | soluble |
| SGAISGDSLISLASTGKRVSIKDLLDEKDFEIWAINEQTMKLESAKVSRVFMTGKKLVYILKTRLGRTIKATANHRFLTIDGWKRLDELSLKEHIALPRKLESSSLQLSPEIEKLSQSDISWDSIVSITETGVEEVFDLTVPGPHNFVANDIIVHASI | soluble |
| SGAVTDDEVIRKRLLIDGDGAGDDRRINLLVKSFIKWCNSGSQEEGYSQYQRMLSTLSQCEFSMGKTLLVYDMNLREMENYEKIYKEIECSIAGAHEKIAECKKQILQAKRIRKNRQEYDALAKVIQHHPDRHETLKELEALGKELEHLSHIKESVEDKLELRRKQFHVLLSTIHELQQTLENDEKLSEVEEAQEASMETDPKP | soluble |
| SGKGGWLLNFLNHAKNQESVENLDKNGAVKAPSSGFKMPLHYPRYTKEDYEEMEEWRLDLLLSEYGLLAFHDNTLHEKRAFAIDTFIWPHHP | soluble |
| SGKTSQRKQCDCENPSKPCLSTSIPLRMSSYTFKRPVTKITSHLGNEVRYYQWEETFKKPEQACWQKRLQGLQAYSSAGELLSTSDLAKTLKDLTSTDTVASASDTQAASIDITSVPTLESSSHLANMIPEAGPQILCKEFLVTEQDIINQERKVKIARERLAVALIAHKLASEMETVRGSRKANL | soluble |
| SGRPFVEMYSEIPEIIHMTEGRELVIPCRVTSPNITVTLKKFPLDTLIPDGKRIIWDSRKGFIISNATYKEIGLLTCEATVNGHLYKTNYLTHRQTNTIIDVQISTPRPVKLLRGHTLVLNCTATTPLNTRVQMTWSYPDEKNKRASVRRRIDQSNSHANIFYSVLTIDKMQNKDKGLYTCRVRSGPSFKSVNTSVHIYDKAFITVKHR | soluble |
| SGRTWREADINYTSGFRNSDRILYSSDWLIYKTTDHYQTFTKIRCAQVINTFDGVADYLQTYHKLPDNYITKSEAQALGWVASKGNLADVAPGKSIGGDIFSNREGKLPGK | soluble |
| SGVDRVLVKSEAWADNRLPLTEAELALIATPPEDSDMASLQQQRQEQNYFVRLGSLSERLRNHAYEHSLGKLQNARQKAQETLQQLTSVLGLMESVKQGVDQRLGEGQEKLHQMWLSWNQKTPQDAEKDPAKPEQVEARALSMFRDITQQLQSMCVALGASIQGLPSHVREQAQQARSQVNDLQATFSGIHSFQDLSAGVLAQTRERIARAREALDNTVEYVAQNTPAMWLVGPFAPGITEKTPEGK | soluble |
| SHMRVLVCGGAGYIGSHFVRALLRDTNHSVVIVDSLVGTHGKSDHVETRENVARKLQQSDGPKPPWADRYAALEVGDVRNEDFLNGVFTRHGPIDAVVHMCAFLAVGESVRDPLKYYDNNVVGILRLLQAMLLHKCDKIIFSSSAAIFGNPTMGSVSTNAEPIDINAKKSPESPYGESKLIAERMIRDCAEAYGIKGICLRYFNACGAHEDGDIGEHYQGSTHLIPIILGRVMSDIAPDQRLTIHEDASTDKRMPIFGTDYPTPDGTCVRDYVHVCDLASAHILALDYVEKLGPNDKSKYFSVFNLGTSRGYSVREVIEVARKTTGHPIPVRECGRREGDPAYLVAASDKAREVLGWKPKYDTLEAIMETSWKFQRTHPNGYASQENGTPGGRTTKL | soluble |
| SHMSLTPDQIVAALQERGWQAEIVTEFSLLNEMVDVDPQGILKCVDGRGSDNTQFCGPKMPGGIYAIAHNRGVTTLEGLKQITKEVASKGHVPSVHGDHSSDMLGCGFFKLWVTGRFDDMGYPRPQFDADQGAKAVENAGGVIEMHHGSHAEKVVYINLVENKTLEPDEDDQRFIVDGWAAGKFGLDVPKFLIAAAATVEMLGGPKKAKIVIP | soluble |
| SINNGTFDEPIVNDQANNPDEWFIWQAGDYGISGARVSDYGVRDGYAYITIADPGTDTWHIQFNQWIGLYRGKTYTISFKAKADTPRPINVKILQNHDPWTNYFAQTVNLTADWQTFTFTYTHPDDADEVVQISFELGEGTATTIYFDDVTVSPQ | soluble |
| SKCIPYSVLLKDLEMRNLRELEDLIIEAVYTDIIQGKLDQRNQLLEVDFCIGRDIRKKDINNIVKTLHEWCDGCEAVLLGIEQQVLRANQYKENHNRTQQQVEAEVTNIKKTLKATASSSAQEMEQQLAERECPPHAEQRQPTKKMSKVKGLVSSRH | soluble |
| SKILVFGHQNPDSDAIGSSMAYAYLKRQLGVDAQAVALGNPNEETAFVLDYFGIQAPPVVKSAQAEGAKQVILTDHNEFQQSIADIREVEVVEVVDHHRVANFETANPLYMRLEPVGSASSIVYRLYKENGVAIPKEIAGVMLSGLISDTLLLKSPTTHASDPAVAEDLAKIAGVDLQEYGLAMLKAGTNLASKTAAQLVDIDAKTFELNGSQVRVAQVNTVDINEVLERQNEIEEAIKASQAANGYSDFVLMITDILNSNSEILALGNNTDKVEAAFNFTLKNNHAFLAGAVSRKKQVVPQLTESFNG | soluble |
| SKNPEEAAEGKQRIHLRPGSLRGAAPAKLHLLPCDVLVSRPAPVDRFFTPAVRHDADGLQASFRGRGLRGEEVAVPPGFAGFVMVTEEKGEGLIGKLNFSGDAEDKADEAQEPLERDFDRLIGATGSFSHFTLWGLETVPGPDAKVHRALGWPSLAAAIHAQVPED | soluble |
| SKTENEEDVKPPESCHAMQLLFKSLEASERAKVEEELKKTKENEFTQRNEHHALRDITHGKVNNYSFGTRQARKLFPHYHPPTWLGNLYLPLRGMPHTGPGCYAAATDWNGLAYNLSKVPTSTKGYAIGARTAVRFKPISKDVTPYPGMYQKVDTLSEKHKKSFAPFNILMPRFRSAAKGDSYPGPGTYNPEMKSVPKVTWPMKFGSPDWSQVPCLEKRTLKAELSADKDFRKHRSRVAYFSLYYQ | soluble |
| SKVLLVFDFDNTIIDDNSDTWIIQCAPDKKLPIELQDSYQKGLWTEFMGRVFKYLRDEGVKEEELKRAVTSLPFTSGMIELLSFLRMNKDRFDCIIISDSNSIFIDWVLEAAAFHDVFDTVFTNPASFDSTGRLTVRNCHTHACTRCPKNLCKNTVLGEFIDKQLQKGVRYTRIVYIGDGGNDVCPVTFLKKNDVAMPREGYTLHRTLDKMSQNLEPMASSIVVWSSGMEIISHLQFLIQM | soluble |
| SLASELHQTQVDLDGLLEVLGRNLYSTPAVAIRELIQNAHDACVRSRLETGRDGDFSIRIQADSHRNQIVITDNGSGLTYEEVLKYLATIGSGYTRVLRDSSHNEDMVGYFGLGFLSAYVVAEKVEVWTTSYQTPEQTWYFSTAGGKKFAISATAPAQVGTTVKLHLREEFYHLAESDLLQGLIERYCCLLRVPIFLNNDDVQVNNLVAPWRLDAATSELQRKKRRLEFAAIFEGAFEPLCAIPIPENNPWSLKGLLWVQDRGGYATSDYRNISVFVRSMFITGECRELLPLWAGFAGGVVESVALSPTASREDIQKNERFYEIRDFLAETLIEGLRTIAANESSVWRRILSRHNQTLLGAALSDDRLFEVMQNDLKIPTTIGDVTLPAYLKQSGGVIYIRNEDKNSQEELLFRAQMKPLVSGYLYAASGFCQKYAHWNHLKAHILGSGDGETKLFTEETVDKAIHDKLAALLLRKNEALSCARFEPAHVPLLVIHDQDVALKKRIERDEADKRIGSAALSLARLHTQAISAEIERRLYVNLNSPLIAAMIDGTQEAAGHLAVAVRAYMESLTHQVDDSDSNFSDELKRFSDALLAITKGEEG | soluble |
| SLENENQLTHQFPTLSRWNPMFISDVHKISFHPHLQRYIGFWMGFPIRWIQIVGYIAAIDIYEGKHVLTVDDCSGMVLRVVFIIQDDFSMSKRAISMSPGNVVCVFGKINSFRSEVELIAQSFEELRDPNDEWKAWQKRMRYKKNLTKISKNHHSIIRT | soluble |
| SLGELFAVFNEKLTIPEQEALMFLYAYMPTGDVTDYTGDYYLENVRLSDQARREMPWGKEIPDDVFRHFVLPIRVNNENLDDSRRVFYNELKDRVKNLSLHDAVLEVNHWCHEKVIYTPSDARTSAPLASVKTAYGRCGEESTFTVAALRSVGIPARQVYTPRWAHTDDNHAWVEAWVDGKWYFFGACEPEPVLNLGWFNAPASRGMLMHTKVFGRYTGQEEIMYETPNYTEINVIDNYAPTAKGSVLVTDAEGQPVADATVEFKVYNYAEFYTVATKHTDRSGHASLTAGKGDMLVWASKDGRFGYSKLSFGKDNELKITLDKNASETYSLPLDIVPPAEGANLPEVTPEQRTENDRRMAQEDSIRNAYVATFITEEQARTFAKENKLDETETVRLLIASRGNHQTLTDFLSDAVKADKAGQAISLLKVVSAKDLRDVSPEVLNDHLNNSGLPASEDFCSNVLNPRVANEMITPYKAFFRKEIPASEAEAFRKNPQALVEWCKKEITINNELNSQRIPMSPMGVWKARVADEKSRNIFFVSMARSLGIPAWIDEVTGKIQYRTFNDNNLKNGKVYDVDFEAAQQTQAPTGTLVARYRPIPSLSDPKYYSHFTLSKFRNGTFQLLNYDEGDVDMGGGATWSNLLKNGARLDTGYYMMVTGTRMASGAVLANVTFFTIEEGKTTTVDLVMRESKDQVQVIGNFNSESTYLPIGTSEPQSILQTCGRGYYVVAVLGAGQEPTNHALRDIAALSGEFEKWGRKMVLLFPSEEQYKKFRPSEFPGLPSTITYGIDVDGAIQKQIAESMKLPNSTILPMFIIGDTFNRVVFVSQGYTIGLGEQLMKVIHGEG | soluble |
| SLIENSHVKKDDIWPSGGQMTVKDLTAKYTEGGNAILENISFSISPGQRVGLLGRTGSGKSTLLSAFLRLLNTEGEIQIDGVSWDSITLEQWRKAFGVIPQKVFIFSGTFRKNLDPYEQWSDQEIWKVADEVGLRSVIEQFPGKLDFVLVDGGCVLSHGHKQLMCLARSVLSKAKILLLDEPSAHLDPVTYQIIRRTLKQAFADCTVILCEARIEAMLECDQFLVIEENKVRQYDSILELYHYPADRFVAGFIGSPKMNFLPVKVTATAIDQVQVELPMPNRQQVWLPVESRDVQVGANMSLGIRPEHLLPSDIADVILEGEVQVVEQLGNETQIHIQIPSIRQNLVYRQNRVVLVEEGATFAIGLPPERCHLFREDGTACRRLHKEPGV | soluble |
| SLIRMIRKFKVKGLRSPSLLIDMILNDTEEGILVVETDGEEQIKDIEKLLKKYNLKYEVDGNVVKIYVGEIKADKTINVVGATCPGPIMMVSDMLSKMKNGEILEIICGKNSLTDLTEGLKGMGNEIIKVEDKGDGTYRILVKKGEKKEEKAAVTKIDELFIINTTGTGNAEKAYATFMMADVALKMNLKPTIFLMMDGASLALKGECDRVKHPAFPKLGDLVRDILSKGVKIYVCELSAEFRGINEKNLEEGFEIAGAPTFLNYLSKPNVRPVWL | soluble |
| SLISYCSDSGDENISCTKKMVVTVTVEGEQLPGEESLLFLNSATDMTVNNGTSVQFSPLRITTSRSAVRYRYPLFYVQNYNAKPYEATVKGSLLNQCNADFNADTATCGLAYDAAGKAIPYSQGFCCDCSMCQTLGLCQPDARANAACNVFGKYTTASCLRFAQRWYSGYTIGGYMTWYTVNLTLSRNVSDSGGAGAAEKVVMRLSPSNNGEVAGEGWDVMARIVGTYAPVDQPLDLTSRMLFAPAIPPNDARVQAGAAEWLLLPTNLVTLDGRECDKVGVSYEAFASQGNKCNLRPGSCLSSQLEDYRTADLQRIAAGNKGQYMATSFGDFNLENDAATSPYISYLAASPAATMISITVSADDLEYTVGLASGKIISTDMNKPTLQAGTADGVMTVMVRNTAAVTGRLVVGTLNCSDGVF | not soluble |
